Experimental data taken from patent US20240139371A1, “NEW ANTIMICROBIAL AND ANTITHROMBOGENIC MEDICAL DEVICE” (UNIVERSITÉ DE LIÈGE, priority 2021, published 2024).

Tested on: human platelets
Assay: Platelet adhesion assay (pNPP test)
Format: cell-based
Settings: human citrated PRP 45 min at 37° C.; PU = Carbothane PC3585A; PPG 468 and 728; fibrinogen-coated wells positive control; FIG. 10
Method: • Blood collection tubes: sodium citrate Vacutainer tubes (3.2% citrate, BD Biosciences) • Non-binding 24-well and 96-well plates for suspension culture (polystyrene, Greiner Bio-One) • Spectrophotometer Spectra max PLUS 384 (Molecular Devices) • Human Fibrinogen ref 341576 (Calbiochem) • 2×pNPP buffer (0.1M citrate buffer pH5.4, 10 mM p-nitrophenylphosphate, 2% Triton X-100)
Platelet adhesion on surfaces is analysed by using the p-NitroPhenil Phosphate (pNPP) test. Values obtained with this test are directly proportional to the number of platelets adhering to the surface. The pNPP test measures the levels of alkaline and acid phosphatases released upon platelet lysis. The hydrolysis of pNPP, a substrate of these phosphatases, produces p-nitrophenol, which has a maximal absorbance at 405 nm and is proportional to the amount of platelets bound to the surface. • 1. […] 100 μl is transferred in a 96-well plate before measuring the absorbance at 405 nm in a spectrophotometer. • 10. Background readings from the PPP incubation is subtracted from the PRP reads. • 11. Numbers of platelets are determined from a calibration curve performed with increasing platelet densities. e. […]
Platelet adhesion was analysed by using the p-NitroPhenil Phosphate (pNPP) assay as described in the protocol of testing of example 10 at point b

Q: Which human platelet adhesion does the source give for fibrinogen here?
A: adhesion was observed
